Values quoted from earlier work in US20130136753A1, “PAXILLIN AS A THERAPEUTIC OR DIAGNOSTIC MARKER FOR CANCER” (UNIVERSITY OF ROCHESTER, priority 2010, published 2013).

B1: Aptamer aptTOV1: aptamer binding ovarian clear cell carcinoma cell line TOV-21G (nucleic acid)
chain: UCCAGAGUGACGCAGCAGAUCUGUGUAGGAUCGCAGUGUAGUGGACAUUUGAUACGACUGGCUCGACACGGUGGCUUA
modifications: listed as RNA, chemistry not given here
B2: Aptamer S6: RNA aptamer binding HER-2 overexpressing breast cancer cells (nucleic acid)
chain: GGGAGAUACCAGCUUAUUCAAUUUGGAUGGGGAGAUCCGUUGAGUAAGCGGGCGUGUCUCUCUGCCGCCUUGCUAUGGGGAGAUAGUAAGUGCAAUCU
modifications: listed as RNA, chemistry not given here

Experiments:
[1] = test system: ovarian clear cell carcinoma cell line TOV-21G; conditions: cited from earlier work
[2] = test system: HER-2 overexpressing breast cancer cells; conditions: cited from earlier work

| Molecule | binding to TOV-21G cells [1] | binding to HER-2 overexpressing breast cancer cells [2] |
| --- | --- | --- |
| B1 | high affinity |  |
| B2 |  | binds specifically |
